Sequences and labels used below:
B1: GCC-box-like sequence 2 (dsDNA)
DNA 1: AATTTACAAAATTATAGAAGTCAAATTACGACGTCGTAAATCTGGCGGGACTTTAATGG
DNA 2: CCATTAAAGTCCCGCCAGATTTACGACGTCGTAATTTGACTTCTATAATTTTGTAAATT
B2: mGCC-box-like sequence 2 (dsDNA)
DNA 1: AATTTACAAAATTATAGAAGTCAAATTACGACGTCGTAAATCTGGCAAAACTTTAATGG
DNA 2: CCATTAAAGTTTTGCCAGATTTACGACGTCGTAATTTGACTTCTATAATTTTGTAAATT
B3: GCC-box-like sequence 1 (dsDNA)
DNA 1: GAATGGGCGATAGAGCTCATACTTACCCGCCTCTCTTCACATTCAAACTTCTAATATTA
DNA 2: TAATATTAGAAGTTTGAATGTGAAGAGAGGCGGGTAAGTATGAGCTCTATCGCCCATTC
B4: mGCC-box-like sequence 1 (dsDNA)
DNA 1: GAATGGGCGATAGAGCTCATACTTAAAAGCCTCTCTTCACATTCAAACTTCTAATATTA
DNA 2: TAATATTAGAAGTTTGAATGTGAAGAGAGGCTTTTAAGTATGAGCTCTATCGCCCATTC

CitERF71 (Citrus sinensis Osbeck, sequence (A0A067HCL9 entry or part of it): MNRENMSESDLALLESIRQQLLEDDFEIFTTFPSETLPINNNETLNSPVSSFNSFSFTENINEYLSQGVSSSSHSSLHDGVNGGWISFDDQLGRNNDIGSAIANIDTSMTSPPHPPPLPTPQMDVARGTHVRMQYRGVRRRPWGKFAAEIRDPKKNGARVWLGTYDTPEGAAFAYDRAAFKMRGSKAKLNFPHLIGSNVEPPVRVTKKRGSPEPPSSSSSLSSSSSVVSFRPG

The data set addresses CitERF71 (Citrus sinensis Osbeck (Newhall sweet …, UniProt A0A067HCL9 1-233)). In words: EMSA; LightShift Chemiluminescent EMSA kit per manufacturer and Nieuwenhuizen et al. 2015; buffer, salt, pH and temperature not stated. The note with it: protein: recombinant; tags: N-terminal 6xHN (His) tag; label: 3' biotin; blunt. Background: Mobility shift assays separate free from complexed probe on a gel.
B1: the binding result is recorded as “binds”. The value for B2 was “no binding”; that for B3 was “binds”; that for B4 was “no binding”.

(Values after PMC5853461, “Transcription factor CitERF71 activates the terpene synthase gene CitTPS16 involved in the synthesis of E-geraniol in sweet orange fruit”.)
